Laboratory results taken from paper PMC6292215 (Cell reports, 2018).

Target: T1, full-length Human recombinant CHERP with an N-terminal HIS (human, UniProt Q8IWX8 1-916)
T1 sequence: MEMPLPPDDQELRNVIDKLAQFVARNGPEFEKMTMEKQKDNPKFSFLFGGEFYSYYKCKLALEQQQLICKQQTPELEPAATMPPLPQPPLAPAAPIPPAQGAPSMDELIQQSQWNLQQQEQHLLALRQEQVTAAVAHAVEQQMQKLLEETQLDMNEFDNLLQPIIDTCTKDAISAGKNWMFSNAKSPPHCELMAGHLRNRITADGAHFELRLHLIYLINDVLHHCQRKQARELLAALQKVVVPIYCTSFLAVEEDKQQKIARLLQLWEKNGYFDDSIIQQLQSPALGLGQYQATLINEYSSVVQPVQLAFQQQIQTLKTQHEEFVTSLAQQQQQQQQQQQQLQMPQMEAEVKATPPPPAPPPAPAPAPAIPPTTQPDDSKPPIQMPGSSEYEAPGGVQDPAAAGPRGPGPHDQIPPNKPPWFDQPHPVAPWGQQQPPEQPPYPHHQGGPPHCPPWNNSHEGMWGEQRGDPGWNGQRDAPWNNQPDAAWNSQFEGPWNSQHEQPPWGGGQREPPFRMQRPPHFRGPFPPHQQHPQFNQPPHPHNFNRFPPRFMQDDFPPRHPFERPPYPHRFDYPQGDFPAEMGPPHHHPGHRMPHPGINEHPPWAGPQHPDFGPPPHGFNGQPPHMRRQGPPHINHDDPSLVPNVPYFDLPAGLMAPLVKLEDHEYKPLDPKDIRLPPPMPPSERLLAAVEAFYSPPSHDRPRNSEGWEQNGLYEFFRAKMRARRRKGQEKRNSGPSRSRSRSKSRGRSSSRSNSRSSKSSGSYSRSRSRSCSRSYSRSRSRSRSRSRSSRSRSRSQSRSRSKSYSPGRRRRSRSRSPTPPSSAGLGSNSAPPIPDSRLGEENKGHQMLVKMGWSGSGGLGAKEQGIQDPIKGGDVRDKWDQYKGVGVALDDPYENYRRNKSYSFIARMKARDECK
Assay: pull-down

B1: Full-length Human RBM17 recombinant protein with an N-terminal GST tag (natural protein)
chain: MSLYDDLGVETSDSKTEGWSKNFKLLQSQLQVKKAALTQAKSQRTKQSTVLAPVIDLKRGGSSDDRQIVDTPPHVAAGLKDPVPSGFSAGEVLIPLADEYDPMFPNDYEKVVKRQREERQRQRELERQKEIEEREKRRKDRHEASGFARRPDPDSDEDEDYERERRKRSMGGAAIAPPTSLVEKDKELPRDFPYEEDSRPRSQSSKAAIPPPVYEEQDRPRSPTGPSNSFLANMGGTVAHKIMQKYGFREGQGLGKHEQGLSTALSVEKTSKRGGKIIVGDATEKDASKKSDSNPLTEILKCPTKVVLLRNMVGAGEVDEDLEVETKEECEKYGKVGKCVIFEIPGAPDDEAVRIFLEFERVESAIKAVVDLNGRYFGGRVVKACFYNLDKFRVLDLAEQV
- binding result: binds
